# Measured values published in PMC2756588.
# B1: unnamed (peptide)
# chain: MKRSRPSRSIPYTTP
# B2: unnamed (peptide)
# chain: KKIRLIFTYPSTVGR
# B3: unnamed (peptide)
# chain: SKAKRPKFLLDLQIK
# B4: unnamed (peptide)
# chain: TKFRISLGLPVGAIM
# B5: unnamed (peptide)
# chain: RVTRKRPREPKSTND
# B6: unnamed (peptide)
# chain: WTQRRGPLVVYAEDN
# Biological target: T1, Abp1, P15891
# T1 sequence (P15891 535-592, looked up): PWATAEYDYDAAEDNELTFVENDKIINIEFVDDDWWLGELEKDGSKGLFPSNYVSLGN
# Experiment: SPOT array
# Settings: median of control spots 935
row,Binder,SPOT intensity
1,B1,32
2,B2,196
3,B3,78
4,B4,289
5,B5,167
6,B6,0

# Biological target: T2, Bbc1, P47068
# T2 sequence (P47068 1-78, looked up): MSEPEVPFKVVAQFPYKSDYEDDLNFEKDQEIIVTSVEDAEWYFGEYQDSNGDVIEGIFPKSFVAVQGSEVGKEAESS
# Experiment: SPOT array
# Settings: median of control spots 796
row,Binder,SPOT intensity
1,B1,25
2,B2,277
3,B3,48
4,B4,43
5,B5,217
6,B6,0

# Biological target: Bem1-1, P29366
# Experiment: SPOT array
# Settings: median of control spots 4282
# Bem1-1, P29366, sequence (P29366 55-141): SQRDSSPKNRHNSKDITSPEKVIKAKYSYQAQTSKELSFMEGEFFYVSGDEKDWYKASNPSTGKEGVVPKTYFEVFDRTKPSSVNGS
row,Binder,SPOT intensity
1,B1,0
2,B2,0
3,B3,0
4,B4,0
5,B5,2
6,B6,0

# Biological target: Bem1-2, P29366
# Experiment: SPOT array
# Settings: median of control spots 4347
# Bem1-2, P29366, sequence (P29366 139-227): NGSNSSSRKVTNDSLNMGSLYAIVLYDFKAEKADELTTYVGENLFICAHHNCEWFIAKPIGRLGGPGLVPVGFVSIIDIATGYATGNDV
row,Binder,SPOT intensity
1,B1,39
2,B2,0
3,B3,0
4,B4,0
5,B5,0
6,B6,3

# Biological target: T3, Boi1, P38041
# T3 sequence (P38041 1-86, looked up): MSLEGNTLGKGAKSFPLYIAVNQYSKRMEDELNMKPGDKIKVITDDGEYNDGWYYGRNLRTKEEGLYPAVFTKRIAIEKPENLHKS
# Experiment: SPOT array
# Settings: median of control spots 1162
row,Binder,SPOT intensity
1,B1,3
2,B2,61
3,B3,2
4,B4,1
5,B5,10
6,B6,1

# Biological target: T4, Boi2, P39969
# T4 sequence (P39969 32-116, looked up): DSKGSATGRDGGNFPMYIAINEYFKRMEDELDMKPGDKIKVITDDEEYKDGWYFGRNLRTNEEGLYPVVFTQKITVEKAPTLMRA
# Experiment: SPOT array
# Settings: median of control spots 1161
row,Binder,SPOT intensity
1,B1,2
2,B2,13
3,B3,0
4,B4,0
5,B5,2
6,B6,0

# Biological target: T5, Bud14, P27637
# T5 sequence (P27637 247-328, looked up): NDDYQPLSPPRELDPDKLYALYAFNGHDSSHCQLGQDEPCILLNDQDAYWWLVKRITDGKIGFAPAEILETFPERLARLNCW
# Experiment: SPOT array
# Settings: median of control spots 956
row,Binder,SPOT intensity
1,B1,7
2,B2,9
3,B3,6
4,B4,6
5,B5,9
6,B6,0

# Biological target: T6, Bzz1-1, P38822
# T6 sequence (P38822 478-572, looked up): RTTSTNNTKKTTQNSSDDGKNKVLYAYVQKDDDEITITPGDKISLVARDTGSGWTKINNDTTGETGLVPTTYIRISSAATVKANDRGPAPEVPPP
# Experiment: SPOT array
# Settings: median of control spots 4446
row,Binder,SPOT intensity
1,B1,1
2,B2,2
3,B3,1
4,B4,0
5,B5,0
6,B6,0

# Biological target: T7, Bzz1-2, P38822
# T7 sequence (P38822 568-633, looked up): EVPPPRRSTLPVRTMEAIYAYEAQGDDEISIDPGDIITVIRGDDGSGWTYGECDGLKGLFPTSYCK
# Experiment: SPOT array
# Settings: median of control spots 4538
row,Binder,SPOT intensity
1,B1,29
2,B2,2
3,B3,1
4,B4,2
5,B5,11
6,B6,0

# Biological target: T8, Cdc25, P04821
# T8 sequence (P04821 50-136, looked up): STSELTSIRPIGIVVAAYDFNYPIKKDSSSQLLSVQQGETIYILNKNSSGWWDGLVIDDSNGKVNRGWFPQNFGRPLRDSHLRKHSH
# Experiment: SPOT array
# Settings: median of control spots 969
row,Binder,SPOT intensity
1,B1,9
2,B2,163
3,B3,26
4,B4,108
5,B5,28
6,B6,1

# Biological target: T9, Cyk3, Q07533
# T9 sequence (Q07533 1-83, looked up): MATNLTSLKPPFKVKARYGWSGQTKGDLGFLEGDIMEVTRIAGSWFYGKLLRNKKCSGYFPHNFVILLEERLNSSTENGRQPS
# Experiment: SPOT array
# Settings: median of control spots 1451
row,Binder,SPOT intensity
1,B1,1
2,B2,10
3,B3,4
4,B4,0
5,B5,4
6,B6,0

# Biological target: T10, Fus1, P11710
# T10 sequence (P11710 432-512, looked up): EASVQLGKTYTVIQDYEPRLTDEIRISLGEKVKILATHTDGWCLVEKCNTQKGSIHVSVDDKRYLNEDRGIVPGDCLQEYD
# Experiment: SPOT array
# Settings: median of control spots 1200
row,Binder,SPOT intensity
1,B1,5
2,B2,73
3,B3,3
4,B4,32
5,B5,34
6,B6,2

# Biological target: GST
# Experiment: SPOT array
# Settings: median of control spots 978
row,Binder,SPOT intensity
1,B1,0
2,B2,0
3,B3,2
4,B4,0
5,B5,2
6,B6,0

# Biological target: T11, Hof1, Q05080
# T11 sequence (Q05080 590-669, looked up): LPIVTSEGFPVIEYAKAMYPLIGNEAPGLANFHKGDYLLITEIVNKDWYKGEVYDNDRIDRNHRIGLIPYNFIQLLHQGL
# Experiment: SPOT array
# Settings: median of control spots 4086
row,Binder,SPOT intensity
1,B1,0
2,B2,0
3,B3,2
4,B4,0
5,B5,3
6,B6,3

# Biological target: T12, Hse1, P38753
# T12 sequence (P38753 208-285, looked up): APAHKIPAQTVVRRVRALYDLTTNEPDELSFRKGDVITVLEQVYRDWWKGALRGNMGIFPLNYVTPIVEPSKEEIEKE
# Experiment: SPOT array
# Settings: median of control spots 1727
row,Binder,SPOT intensity
1,B1,14
2,B2,4
3,B3,2
4,B4,8
5,B5,12
6,B6,1

# Biological target: T13, Lsb1, P53281
# T13 sequence (P53281 45-122, looked up): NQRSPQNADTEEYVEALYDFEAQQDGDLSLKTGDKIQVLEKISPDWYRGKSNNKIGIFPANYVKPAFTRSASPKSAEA
# Experiment: SPOT array
# Settings: median of control spots 388
row,Binder,SPOT intensity
1,B1,0
2,B2,50
3,B3,7
4,B4,44
5,B5,9
6,B6,0

# Biological target: T14, Lsb3, P43603
# T14 sequence (P43603 385-451, looked up): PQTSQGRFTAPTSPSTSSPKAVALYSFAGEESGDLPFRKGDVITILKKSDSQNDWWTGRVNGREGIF
# Experiment: SPOT array
# Settings: median of control spots 406
row,Binder,SPOT intensity
1,B1,1
2,B2,20
3,B3,2
4,B4,28
5,B5,5
6,B6,0

# Biological target: T15, Lsb4, P32793
# T15 sequence (P32793 402-468, looked up): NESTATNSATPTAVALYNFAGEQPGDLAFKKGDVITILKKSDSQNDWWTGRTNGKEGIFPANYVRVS
# Experiment: SPOT array
# Settings: median of control spots 397
row,Binder,SPOT intensity
1,B1,6
2,B2,28
3,B3,5
4,B4,46
5,B5,10
6,B6,1

# Biological target: Myo3, P36006
# Experiment: SPOT array
# Settings: median of control spots 468
row,Binder,SPOT intensity
1,B1,5
2,B2,41
3,B3,6
4,B4,69
5,B5,19
6,B6,0

# Biological target: T16, Myo5, Q04439
# T16 sequence (Q04439 1072-1160, looked up): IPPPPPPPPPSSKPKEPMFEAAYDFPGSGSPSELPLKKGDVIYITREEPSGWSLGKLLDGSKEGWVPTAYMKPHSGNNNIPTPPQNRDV
# Experiment: SPOT array
# Settings: median of control spots 471
row,Binder,SPOT intensity
1,B1,2
2,B2,12
3,B3,0
4,B4,14
5,B5,3
6,B6,0

# Biological target: T17, Nbp2, Q12163
# T17 sequence (Q12163 103-180, looked up): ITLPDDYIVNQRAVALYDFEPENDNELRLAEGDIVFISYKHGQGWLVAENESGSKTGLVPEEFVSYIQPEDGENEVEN
# Experiment: SPOT array
# Settings: median of control spots 357
row,Binder,SPOT intensity
1,B1,0
2,B2,258
3,B3,0
4,B4,159
5,B5,40
6,B6,0

# Biological target: T18, Pex13, P80667
# T18 sequence (P80667 295-386, looked up): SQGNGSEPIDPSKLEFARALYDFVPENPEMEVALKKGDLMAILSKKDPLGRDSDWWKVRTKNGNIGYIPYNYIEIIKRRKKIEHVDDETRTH
# Experiment: SPOT array
# Settings: median of control spots 1341
row,Binder,SPOT intensity
1,B1,10
2,B2,12
3,B3,5
4,B4,29
5,B5,0
6,B6,10

# Biological target: T19, Pin3, Q06449
# T19 sequence (Q06449 53-122, looked up): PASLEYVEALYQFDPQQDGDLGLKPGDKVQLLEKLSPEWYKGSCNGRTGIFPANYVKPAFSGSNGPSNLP
# Experiment: SPOT array
# Settings: median of control spots 2171
row,Binder,SPOT intensity
1,B1,34
2,B2,31
3,B3,4
4,B4,65
5,B5,3
6,B6,32

# Biological target: Rvs167, P39743
# Experiment: SPOT array
# Settings: median of control spots 2707
# Rvs167, P39743, sequence (P39743 419-482): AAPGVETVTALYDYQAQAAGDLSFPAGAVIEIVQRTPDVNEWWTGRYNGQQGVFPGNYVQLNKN
row,Binder,SPOT intensity
1,B1,6
2,B2,0
3,B3,0
4,B4,0
5,B5,0
6,B6,0

# Biological target: Sho1, P40073
# Experiment: SPOT array
# Settings: median of control spots 1148
# Sho1, P40073, sequence (P40073 287-367): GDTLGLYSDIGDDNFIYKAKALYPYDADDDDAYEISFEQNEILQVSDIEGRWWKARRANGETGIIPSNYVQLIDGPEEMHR
row,Binder,SPOT intensity
1,B1,54
2,B2,253
3,B3,114
4,B4,367
5,B5,173
6,B6,1

# Biological target: T20, Sla1-2, P32790
# T20 sequence (P32790 60-140, looked up): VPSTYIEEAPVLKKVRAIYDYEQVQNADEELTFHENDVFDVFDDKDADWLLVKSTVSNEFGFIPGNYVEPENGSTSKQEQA
# Experiment: SPOT array
# Settings: median of control spots 712
row,Binder,SPOT intensity
1,B1,6
2,B2,6
3,B3,2
4,B4,9
5,B5,2
6,B6,0

# Biological target: T21, Sla1-3, P32790
# T21 sequence (P32790 344-424, looked up): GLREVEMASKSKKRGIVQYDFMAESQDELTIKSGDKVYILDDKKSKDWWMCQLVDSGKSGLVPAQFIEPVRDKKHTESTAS
# Experiment: SPOT array
# Settings: median of control spots 5475
row,Binder,SPOT intensity
1,B1,35
2,B2,8
3,B3,19
4,B4,3
5,B5,47
6,B6,18
